T1: PavDof15 (Prunus avium (sweet cherry), UniProt A0A6P5S8Z2 1-327)
T1 sequence: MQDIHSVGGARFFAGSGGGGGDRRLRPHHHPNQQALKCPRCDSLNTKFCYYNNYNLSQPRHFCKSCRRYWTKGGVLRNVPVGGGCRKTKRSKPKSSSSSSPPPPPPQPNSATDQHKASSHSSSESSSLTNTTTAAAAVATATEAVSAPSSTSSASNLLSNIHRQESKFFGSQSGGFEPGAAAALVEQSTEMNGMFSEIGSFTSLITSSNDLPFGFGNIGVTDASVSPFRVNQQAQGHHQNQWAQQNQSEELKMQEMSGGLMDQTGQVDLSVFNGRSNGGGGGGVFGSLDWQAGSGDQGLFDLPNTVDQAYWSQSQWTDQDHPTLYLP

T2: PavDof6 (Prunus avium (sweet cherry), UniProt A0A6P5RUY3 1-310)
T2 sequence: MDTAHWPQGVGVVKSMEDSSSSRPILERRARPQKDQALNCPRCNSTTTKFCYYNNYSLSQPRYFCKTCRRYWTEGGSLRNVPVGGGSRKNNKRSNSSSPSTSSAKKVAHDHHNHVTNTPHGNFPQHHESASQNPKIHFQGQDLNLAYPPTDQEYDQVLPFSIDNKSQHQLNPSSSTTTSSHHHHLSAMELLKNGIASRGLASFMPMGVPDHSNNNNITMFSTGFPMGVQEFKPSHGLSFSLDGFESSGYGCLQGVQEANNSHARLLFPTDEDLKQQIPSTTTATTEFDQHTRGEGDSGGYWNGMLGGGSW

T3: PavDof2 (Prunus avium (sweet cherry), UniProt A0A6P5T378 1-263)
T3 sequence: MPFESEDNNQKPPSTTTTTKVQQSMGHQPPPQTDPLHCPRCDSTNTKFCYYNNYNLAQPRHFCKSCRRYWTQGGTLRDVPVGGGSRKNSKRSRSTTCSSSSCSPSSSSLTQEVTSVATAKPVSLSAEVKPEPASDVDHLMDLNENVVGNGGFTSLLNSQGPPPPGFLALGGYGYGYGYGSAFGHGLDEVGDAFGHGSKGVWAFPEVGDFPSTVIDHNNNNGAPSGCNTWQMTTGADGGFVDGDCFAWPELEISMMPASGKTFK

B1: PavQRT3 promoter probe (dsDNA)
DNA 1: TTGAAAAGTTAGGAAAAAAGTTT
DNA 2: AAACTTTTTTCCTAACTTTTCAA
B2: PavPME44 promoter probe (dsDNA)
DNA 1: CTGCTTTTCTGAAAATTAAAGCAGTTTGGAGAAAAGTCC
DNA 2: GGACTTTTCTCCAAACTGCTTTAATTTTCAGAAAAGCAG
B3: PavXTH31 promoter probe (dsDNA)
DNA 1: TGCTTTTTTTTTTTTAAAGGATT
DNA 2: AATCCTTTAAAAAAAAAAAAGCA
B4: PavPL18 promoter probe (dsDNA)
DNA 1: CATAAAAAGAAATAAAATGAAAAGAAAAGTGA
DNA 2: TCACTTTTCTTTTCATTTTATTTCTTTTTATG
B5: PavNCED1 promoter probe (Dof site) (dsDNA)
DNA 1: CTCAAAAGCTAGTTATATGGAAAAAGGGA
DNA 2: TCCCTTTTTCCATATAACTAGCTTTTGAG
B6: PavXTH26 promoter probe (dsDNA)
DNA 1: AACATTCTTTTTGTAAATCAAGTAGTTAAAAGCATTTAC
DNA 2: GTAAATGCTTTTAACTACTTGATTTACAAAAAGAATGTT

Molecular target: T1, PavDof15
Test: EMSA; Light Shift Chemiluminescent EMSA Kit (Beyotime); buffer, salt, pH and temperature not stated
Conditions: protein: recombinant; tags: His (pET-30a(+)); label: biotin

Binding result, binds:
B1, B2, B3, B4, B5, B6

Molecular target: T2, PavDof6
Test: as above
Conditions: protein: recombinant; tags: His (pET-30a(+)); label: biotin

Binding result, binds:
B1, B2, B3, B4, B5, B6

Molecular target: T3, PavDof2
Test: as above
Conditions: protein: recombinant; tags: His (pET-30a(+)); label: biotin

Binding result, binds:
B1, B2, B3, B4, B5, B6
